Test results: PMC9947420

Molecular target: GST-tagged PEX5-binding domain of X. laevis PEX14 (amino acids 19-78) (Xenopus laevis)
Assay: SEC; Superdex 200 HiLoad 26/600 PG, XBHS buffer with 1 mM DTT; retention volume between 180 and 190 mL

**Q.** How did the stoichiometry N turn out when “GST-tagged PEX5-binding domain of X. laevis PEX14 (amino acids 19-78) (domain or fragment)” was run?
**A.** Its stoichiometry N is 2.
